Measurements as given in patent US20180291096A1 (Janssen / Centocor, published 2018).

T1: recombinant human IL-23 (hrIL-23), produced at Centocor (human, UniProt P29460 23-328)
T1 sequence 1: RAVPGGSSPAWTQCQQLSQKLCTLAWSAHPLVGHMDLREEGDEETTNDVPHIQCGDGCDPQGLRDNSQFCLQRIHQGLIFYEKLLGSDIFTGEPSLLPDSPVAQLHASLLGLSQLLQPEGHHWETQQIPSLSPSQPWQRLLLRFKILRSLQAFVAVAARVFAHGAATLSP
T1 sequence 2: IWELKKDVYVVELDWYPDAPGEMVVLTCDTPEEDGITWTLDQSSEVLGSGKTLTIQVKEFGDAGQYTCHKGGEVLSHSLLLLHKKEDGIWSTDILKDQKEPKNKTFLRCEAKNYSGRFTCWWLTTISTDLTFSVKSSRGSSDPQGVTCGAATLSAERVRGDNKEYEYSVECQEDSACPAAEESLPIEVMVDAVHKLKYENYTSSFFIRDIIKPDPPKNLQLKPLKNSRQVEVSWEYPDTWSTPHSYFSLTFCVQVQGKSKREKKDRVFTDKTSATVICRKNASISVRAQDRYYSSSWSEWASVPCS


molecular target: T1, recombinant human IL-23 (hrIL-23), …; assay: cell-based or functional assay

IC50, inhibition of IL-17 production	Binder
0.00323 µg/mL	MOR05054 mAb (antibody, human IgG1, V domains shown) VH: QVELVESGGGLVQPGGSLRLSCAASGFTFSSFGMSWVRQAPGKGLEWVSGIEHKYLSYATLYAASVKGRFTISRDNSKNTLYLQMNSLRAEDTAVYYCARYWGTPYLMQFDNWGQGTLVTVSS VL: DIALTQPASVSGSPGQSITISCTGTSSDVGGYNSVSWYQQHPGKAPKLMIYSVSSRPSGVSNRFSGSKSGNTASLTISGLQAEDEADYYCSSYDTNKPLVVFGGGTKLTVL
0.0178 µg/mL	MOR05052 mAb (antibody, human IgG1, V domains shown) VH: QVELVESGGGLVQPGGSLRLSCAASGFTFSSFGMSWVRQAPGKGLEWVSSIEHKYLSYTTFYAASVKGRFTISRDNSKNTLYLQMNSLRAEDTAVYYCARYWGTPYLMQFDNWGQGTLVTVSS VL: DIALTQPASVSGSPGQSITISCTGTSSDVGGYNSVSWYQQHPGKAPKLMIYSVSSRPSGVSNRFSGSKSGNTASLTISGLQAEDEADYYCSSYDTNKPLVVFGGGTKLTVL
0.0234 µg/mL	MOR05047 mAb (antibody, human IgG1, V domains shown) VH: QVELVESGGGLVQPGGSLRLSCAASGFTFSSFGMSWVRQAPGKGLEWVSNIEHKYLGYATSYAASVKGRFTISRDNSKNTLYLQMNSLRAEDTAVYYCARYWGTPYLMQFDNWGQGTLVTVSS VL: DIALTQPASVSGSPGQSITISCTGTSSDVGGYNSVSWYQQHPGKAPKLMIYSVSSRPSGVSNRFSGSKSGNTASLTISGLQAEDEADYYCSSYDTNKPLVVFGGGTKLTVL
0.0162 µg/mL	MOR05048 mAb (antibody, human IgG1, V domains shown) VH: QVELVESGGGLVQPGGSLRLSCAASGFTFSSFGMSWVRQAPGKGLEWVSNIEHKFMGYTTYYAAGVKGRFTISRDNSKNTLYLQMNSLRAEDTAVYYCARYWGTPYLMQFDNWGQGTLVTVSS VL: DIALTQPASVSGSPGQSITISCTGTSSDVGGYNSVSWYQQHPGKAPKLMIYSVSSRPSGVSNRFSGSKSGNTASLTISGLQAEDEADYYCSSYDTNKPLVVFGGGTKLTVL
0.0277 µg/mL	MOR05050 mAb (antibody, human IgG1, V domains shown) VH: QVELVESGGGLVQPGGSLRLSCAASGFTFSSFGMSWVRQAPGKGLEWVSSIEHKYTGYTTYYAAPVKGRFTISRDNSKNTLYLQMNSLRAEDTAVYYCARYWGTPYLMQFDNWGQGTLVTVSS VL: DIALTQPASVSGSPGQSITISCTGTSSDVGGYNSVSWYQQHPGKAPKLMIYSVSSRPSGVSNRFSGSKSGNTASLTISGLQAEDEADYYCSSYDTNKPLVVFGGGTKLTVL
0.0916 µg/mL	MOR05055 mAb (antibody, human IgG1, V domains shown) VH: QVELVESGGGLVQPGGSLRLSCAASGFTFSSFGMSWVRQAPGKGLEWVSNIEHKYLGYATVYAASVKGRFTISRDNSKNTLYLQMNSLRAEDTAVYYCARYWGTPYLMQFDNWGQGTLVTVSS VL: DIALTQPASVSGSPGQSITISCTGTSSDVGGYNSVSWYQQHPGKAPKLMIYSVSSRPSGVSNRFSGSKSGNTASLTISGLQAEDEADYYCSSYDTNKPLVVFGGGTKLTVL
0.0663 µg/mL	MOR05051 mAb (antibody, human IgG1, V domains shown) VH: QVELVESGGGLVQPGGSLRLSCAASGFTFSSFGMSWVRQAPGKGLEWVSQIEHKYLSYTTLYAASVKGRFTISRDNSKNTLYLQMNSLRAEDTAVYYCARYWGTPYLMQFDNWGQGTLVTVSS VL: DIALTQPASVSGSPGQSITISCTGTSSDVGGYNSVSWYQQHPGKAPKLMIYSVSSRPSGVSNRFSGSKSGNTASLTISGLQAEDEADYYCSSYDTNKPLVVFGGGTKLTVL
0.00493 µg/mL	MOR05053 mAb (antibody, human IgG1, V domains shown) VH: QVELVESGGGLVQPGGSLRLSCAASGFTFSSFGMSWVRQAPGKGLEWVSNIEHKYTSYTTYYAASVKGRFTISRDNSKNTLYLQMNSLRAEDTAVYYCARYWGTPYLMQFDNWGQGTLVTVSS VL: DIALTQPASVSGSPGQSITISCTGTSSDVGGYNSVSWYQQHPGKAPKLMIYSVSSRPSGVSNRFSGSKSGNTASLTISGLQAEDEADYYCSSYDTNKPLVVFGGGTKLTVL
0.0282 µg/mL	MOR05038 mAb (antibody, human IgG1, V domains shown) VH: QVELVQSGAEVKKPGSSVKVSCKASGGTFSSNYISWVRQAPGQGLEWMGINAHLGGTWYAQKFQGRVTITADESTSTAYMELSSLRSEDTAVYYCARSKKGMYGGWTYPLMMFDLWGQGTLVTVSS VL: not shown
0.276 µg/mL	MOR04649 mAb (antibody, human IgG1, V domains shown) VH: QVELVQSGAEVKKPGESLKISCKGSGYSFSNYWIGWVRQMPGKGLEWMGIIDPSNSYTNYSPSFQGQVTISADKSISTAYLQWSSLKASDTAMYYCARWYYKPFDVWGQGTLVTVSS VL: DIVLTQPPSVSGAPGQRVTISCTGSSSNIGSGYDVHWYQQLPGTAPKLLIYGNSKRPSGVPDRFSGSKSGTSASLAITGLQSEDEADYYCSSWTPSSVVFGGGTKLTVL
0.00301 µg/mL	MOR05041 mAb (antibody, human IgG1, V domains shown) VH: QVELVQSGAEVKKPGESLKISCKGSGYSFSNYWIGWVRQMPGKGLEWMGIISPTGSVTWYSPSFQGQVTISADKSISTAYLQWSSLKASDTAMYYCARWYYKPFDVWGQGTLVTVSS VL: DIVLTQPPSVSGAPGQRVTISCTGSSSNIGSGYDVHWYQQLPGTAPKLLIYGNSKRPSGVPDRFSGSKSGTSASLAITGLQSEDEADYYCSSWTPSSVVFGGGTKLTVL
0.0106 µg/mL	MOR05059 mAb (antibody, human IgG1, V domains shown) VH: QVELVQSGAEVKKPGESLKISCKGSGYSFSNYWIGWVRQMPGKGLEWMGIIDPSNSYTNYSPSFQGQVTISADKSISTAYLQWSSLKASDTAMYYCARWYYKPFDVWGQGTLVTVSS VL: DIVLTQPPSVSGAPGQRVTISCTGSSSNIGSGYDVHWYQQLPGTAPKLLIYGNSKRPSGVPDRFSGSKSGTSASLAITGLQSEDEADYYCASWTDGLSLVVFGGGTKLTVL
0.0141 µg/mL	MOR05044 mAb (antibody, human IgG1, V domains shown) VH: QVELVQSGAEVKKPGESLKISCKGSGYSFSNYWIGWVRQMPGKGLEWMGIISPSGSTTWYSPSFQGQVTISADKSISTAYLQWSSLKASDTAMYYCARWYYKPFDVWGQGTLVTVSS VL: DIVLTQPPSVSGAPGQRVTISCTGSSSNIGSGYDVHWYQQLPGTAPKLLIYGNSKRPSGVPDRFSGSKSGTSASLAITGLQSEDEADYYCSSWTPSSVVFGGGTKLTVL
0.0144 µg/mL	MOR05043 mAb (antibody, human IgG1, V domains shown) VH: QVELVQSGAEVKKPGESLKISCKGSGYSFSNYWIGWVRQMPGKGLEWMGFISPDGSHTWYSPSFQGQVTISADKSISTAYLQWSSLKASDTAMYYCARWYYKPFDVWGQGTLVTVSS VL: DIVLTQPPSVSGAPGQRVTISCTGSSSNIGSGYDVHWYQQLPGTAPKLLIYGNSKRPSGVPDRFSGSKSGTSASLAITGLQSEDEADYYCSSWTPSSVVFGGGTKLTVL
0.00285 µg/mL	MOR05058 mAb (antibody, human IgG1, V domains shown) VH: QVELVQSGAEVKKPGESLKISCKGSGYSFSNYWIGWVRQMPGKGLEWMGIIDPSNSYTNYSPSFQGQVTISADKSISTAYLQWSSLKASDTAMYYCARWYYKPFDVWGQGTLVTVSS VL: DIVLTQPPSVSGAPGQRVTISCTGSSSNIGSGYDVHWYQQLPGTAPKLLIYGNSKRPSGVPDRFSGSKSGTSASLAITGLQSEDEADYYCSSWTDTPNMIVFGGGTKLTVL
0.0428 µg/mL	MOR05046 mAb (antibody, human IgG1, V domains shown) VH: QVELVQSGAEVKKPGESLKISCKGSGYSFSNYWIGWVRQMPGKGLEWMGIIDPVSSWTKYSPSFQGQVTISADKSISTAYLQWSSLKASDTAMYYCARWYYKPFDVWGQGTLVTVSS VL: DIVLTQPPSVSGAPGQRVTISCTGSSSNIGSGYDVHWYQQLPGTAPKLLIYGNSKRPSGVPDRFSGSKSGTSASLAITGLQSEDEADYYCSSWTPSSVVFGGGTKLTVL
0.0014 µg/mL	MOR05045 mAb (antibody, human IgG1, V domains shown) VH: QVELVQSGAEVKKPGESLKISCKGSGYSFSNYWIGWVRQMPGKGLEWMGIISPTGSATWYSPSFQGQVTISADKSISTAYLQWSSLKASDTAMYYCARWYYKPFDVWGQGTLVTVSS VL: DIVLTQPPSVSGAPGQRVTISCTGSSSNIGSGYDVHWYQQLPGTAPKLLIYGNSKRPSGVPDRFSGSKSGTSASLAITGLQSEDEADYYCSSWTPSSVVFGGGTKLTVL
0.00127 µg/mL	MOR05042 mAb (antibody, human IgG1, V domains shown) VH: QVELVQSGAEVKKPGESLKISCKGSGYSFSNYWIGWVRQMPGKGLEWMGIISPTGSSTWYSPSFQGQVTISADKSISTAYLQWSSLKASDTAMYYCARWYYKPFDVWGQGTLVTVSS VL: DIVLTQPPSVSGAPGQRVTISCTGSSSNIGSGYDVHWYQQLPGTAPKLLIYGNSKRPSGVPDRFSGSKSGTSASLAITGLQSEDEADYYCSSWTPSSVVFGGGTKLTVL
0.00264 µg/mL	MOR05040 mAb (antibody, human IgG1, V domains shown) VH: QVELVQSGAEVKKPGSSVKVSCKASGGTFSSNYISWVRQAPGQGLEWMGISPGTGINAYYAQKFQGRVTITADESTSTAYMELSSLRSEDTAVYYCARSKKGMYGGWTYPLMMFDLWGQGTLVTVSS VL: not shown
0.0491 µg/mL	MOR05029 mAb (antibody, human IgG1, V domains shown) VH: QVELVQSGAEVKKPGSSVKVSCKASGGTFSSNYISWVRQAPGQGLEWMGGIIPIFGHANYAQKFQGRVTITADESTSTAYMELSSLRSEDTAVYYCARSKKGMYGGWTYPLMMFDLWGQGTLVTVSS VL: not shown
0.0646 µg/mL	MOR05030 mAb (antibody, human IgG1, V domains shown) VH: QVELVQSGAEVKKPGSSVKVSCKASGGTFSSNYISWVRQAPGQGLEWMGGIIPIFGHANYAQKFQGRVTITADESTSTAYMELSSLRSEDTAVYYCARSKKGMYGGWTYPLMMFDLWGQGTLVTVSS VL: not shown
